Key:
[1] = molecular target: anti-PR3 autoantibodies in PR3+ANCA patient serum; assay: blocking ELISA: 1:100 serum pre-incubated 30 min with 0 to 100 µg/ml m1, c-ANCA ELISA kit; patient samples 1, 7, 24 and 58
[2] = molecular target: anti-PR3 autoantibodies in PR3+ANCA patient serum; assay: competition ELISA: serum PR3+ ANCA 1 (1:100) pre-incubated with the binder, unblocked anti-PR3 IgG measured on a c-ANCA (PR3) ELISA kit, % of untreated
[3] = molecular target: anti-PR3 autoantibodies in PR3+ANCA patient serum; assay: competition ELISA, medium-titer serum ANCA 65 (1:100) pre-incubated with the binder, unblocked anti-PR3 IgG on a c-ANCA (PR3) ELISA kit, % of untreated
[4] = molecular target: anti-PR3 autoantibodies in PR3+ANCA patient serum; assay: pull-down with binder-coated magnetic beads, serum PR3+ ANCA 97; 100 - (anti-PR3 IgG after binder beads / after control-protein beads x 100), c-ANCA ELISA
[5] = molecular target: anti-PR3 autoantibodies in PR3+ANCA patient serum; assay: pull-down with binder-coated magnetic beads, serum PR3+ ANCA 91; 100 - (anti-PR3 IgG after binder beads / after control-protein beads x 100), c-ANCA ELISA
[6] = molecular target: anti-PR3 autoantibodies in PR3+ANCA patient serum; assay: competition ELISA, medium-titer serum ANCA 97 (1:100) pre-incubated with the binder, unblocked anti-PR3 IgG on a c-ANCA (PR3) ELISA kit, % of untreated
[7] = molecular target: anti-PR3 autoantibodies in PR3+ANCA patient serum; assay: depletion with m1-coated magnetic beads (1 mg beads, 1:50 serum, 10 min), flow-through measured by c-ANCA ELISA; five patient sera
[8] = molecular target: anti-PR3 autoantibodies in PR3+ANCA patient serum; assay: pull-down with binder-coated magnetic beads, serum PR3+ ANCA 4; 100 - (anti-PR3 IgG after binder beads / after control-protein beads x 100), c-ANCA ELISA
[9] = molecular target: anti-PR3 autoantibodies in PR3+ANCA patient serum; assay: blocking ELISA: 1:100 serum pre-incubated 30 min with 0 to 600 µg/ml m1, c-ANCA ELISA kit; 14 out of 15 patient sera of low, medium and high titer
[10] = molecular target: anti-PR3 autoantibodies in PR3+ANCA patient serum; assay: competition ELISA, low-titer serum ANCA 93 (1:100) pre-incubated with the binder, unblocked anti-PR3 IgG on a c-ANCA (PR3) ELISA kit, % of untreated
[11] = molecular target: anti-PR3 autoantibodies in PR3+ANCA patient serum; assay: pull-down with binder-coated magnetic beads, serum PR3+ ANCA 93; 100 - (anti-PR3 IgG after binder beads / after control-protein beads x 100), c-ANCA ELISA
[12] = molecular target: anti-PR3 autoantibodies in PR3+ANCA patient serum; assay: pull-down with binder-coated magnetic beads, serum PR3+ ANCA 60; 100 - (anti-PR3 IgG after binder beads / after control-protein beads x 100), c-ANCA ELISA

- residual binding percentage (residual autoantibodies against untreated serum) [1]: < 50%
- IC50 (read off the curve) [2]: 0.4 µg/mL
- IC50 (read off the curve) [3]: 0.4 µg/mL
- % of depletion [4]: 51%
- % of depletion [5]: 53%
- IC50 (read off the curve) [6]: 0.2 µg/mL
- percentage of depletion of anti-PR3 autoantibodies [7]: > 50%
- % of depletion [8]: 81%
- residual binding percentage (residual autoantibodies against untreated serum) [9]: < 50%
- IC50 (read off the curve) [10]: 0.5 µg/mL
- % of depletion [11]: 88%
- % of depletion [12]: 91%
B1: PR3 glycoengineered polypeptide (protein)
chain: IVGGHEAQPHSRPYMASLQMRGNPGSHFCGGTLIHPSFVLTAAHCLRDIPQRLVNVVLGAHNVRTQEPTQQHFSVAQVFLNNYDAENKLNDVLLIQLSSPANLSASVATVQLPQQDQPVPHGTQCLAMGWGRVGAHDPPAQVLQELNVTVVTAACRPHNICTFVPRRKAGICFGDAGGPLICDGIIQGIDSFVIWGCATRAAPDFFTRVALYVDWIRSTLRRVEAKGRPGGGGANSTAPAPAPAHHHHHHHHHH
modifications: N-glycans (81.5% A2GalNAc2, biantennary GalNAc-terminated) at the native sites N129 and N174 (numbering of UniProt P24158) and at the Asn of the C-terminal glycotag; 80-90% of molecules fully …
